Experiments:
G401 cells = experiment: Inhibitory effect on apoptosis induced by carcinostatic (Hoechst staining method); format: cell-based
Description: Five groups were prepared; the untreated group, the cisplatin (100 μM) treated group, the MK (1, 10, or 100 ng/mL)+cisplatin (100 μM) treated groups.
G401 cells (2×10^4) were seeded on a 3.5 cm-dish and cultured in 10% FBS/DMEM overnight. 10% FBS/DMEM was added to each dish and further cultured for 24 to 48 hours. The cells were washed twice and cultured in 0.1% FBS/DMEM overnight. MK was added to the MK treatment groups to 1, 10, or 100 ng/ml and cultured in 0.1% FBS/DMEM for 6 hours. Cisplatin was added to the cisplatin treatment groups to 100 μM and cultured in 0.1% FBS/DMEM for 2 hours. After culturing, the cells were washed three times. Then, human MK was added to the MK treatment groups to 1, 10, or 100 ng/ml and cultured in 0.1% FBS/DMEM for 12 or 24 hours.
The cells were fixed with a fixative (methanol:acetic acid=3:1) at room temperature for 10 min, and dried at room temperature for 30 min. Hoechst 33342 (ICN Biomedicals; Ohio, USA) was added thereto to stain the cells at room temperature for 10 to 30 min. The cells were washed with water three times, wind-dried, and mounted onto a fluorescent microscope (Olympus, BX60) and photographed. FIGS. 2A, 2B, and 2C show the untreated group, the cisplatin (100 μM) treated group, and the MK (100 ng/mL)+cisplatin (100 μM) treated group, which were all cultured for 12 hours. […]

hippocampal neurocytes = experiment: Apoptosis-inhibitory effect in vivo, transient forebrain ischemia, MK administration after the ischemic injury; set-up: species or system Mongolian gerbil; conditions: counted seven days after injury
Description: MK (2.0 μg) was injected into the ventricle of a Mongolian gerbil transient forebrain ischemia model 2, 4, 6, 12, or 24 hours after the ischemic injury. The numbers of surviving hippocampal neurocytes were counted seven days after the ischemic injury (FIG. 16). When MK was administered at 2 hours after the injury, the number of surviving neurocytes decreased, compared to the Sham-op group, while it was considerably higher than the saline administrated group.
The numbers of surviving hippocampal neurocytes in the groups administered 2, 4, 6, 12, or 24 hours after the ligation were 120±36 (n=4), 90±23 (n=6), 80±13 (n=6), 86±34 (n=6), and 93±22 (n=4) cells/mm, respectively (FIG. 16).

B1: MK: midkine, a heparin-binding growth and differentiation factor; human MK protein (SEQ ID NO: 3; or recombinant, secreted by yeast) (protein, UniProt P21741 21-143, looked up)
Midkine: VAKKKDKVKKGGPGSECAEWAWGPCTPSSKDCGVGFREGTCGAQTQRIRCRVPCNWKKEFGADCKYKFENWGACDGGTGTKVRQGTLKKARYNAQCQETIRVTKPCTPKTKAKAKAKKGKGKD
numbers of cells containing Hoechst 33342-stained nuclei with condensed chromatin and fragmented nuclei (G401 cells; MK 100 ng/mL + cisplatin 100 μM, 12 and 24 hours, compared to cisplatin alone): remarkably decreased
Frequency of apoptotic cell death (Hoechst 33342) (G401 cells; MK 1, 10 or 100 ng/ml + cisplatin 100 μM, 12 and 24 hours culture, compared with the cisplatin treated group): decreased in a MK concentration-dependent fasion
numbers of surviving hippocampal neurocytes (hippocampal neurocytes; MK 2.0 μg into the ventricle 2 hours after the ligation): 120±36 cells/mm
numbers of surviving hippocampal neurocytes (hippocampal neurocytes; MK 2.0 μg into the ventricle 4 hours after the ligation): 90±23 cells/mm
numbers of surviving hippocampal neurocytes (hippocampal neurocytes; MK 2.0 μg into the ventricle 6 hours after the ligation): 80±13 cells/mm
numbers of surviving hippocampal neurocytes (hippocampal neurocytes; MK 2.0 μg into the ventricle 12 hours after the ligation): 86±34 cells/mm
numbers of surviving hippocampal neurocytes (hippocampal neurocytes; MK 2.0 μg into the ventricle 24 hours after the ligation): 93±22 cells/mm
